Reference: the nanobody polyreactivity screen of Harvey et al. (2022)

assay: yeast display, Sf9 membrane polyspecificity reagent, FACS + sequencing; frameworks hold sequencing errors
Procedure, shortened: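 A synthetic nanobody library was expressed on Saccharomyces cerevisiae BJ5465 by galactose induction for 36–48 hours. The library was stained for 1 hour at 4 °C with 10% biotinylated, detergent-solubilized Sf9 membrane reagent and enriched with streptavidin microbeads before FACS. Low and high (top ~1%) gates were set on anti-HA fluorescence for expression and streptavidin fluorescence for reagent binding, and each polyreactivity label reflects the gate of origin.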

| Sequence | polyreactivity (PSR sort gate) |
| --- | --- |
| QVQLVESGGGLVQAGGSLRLSCAASGIIFIKYAMGWYRQAPGKERELVAGINVSSGGDTYADSVKGRFTISRDNAKNTVYLQMNSLKPEDTAVYYCNAGTGGPDYVFITEYDYWGQGTQVTVSS | low polyreactivity |
| QVQLVESGGGLVQAGGSLRLSCAASGIIFINYVMGWYRQAPGKERELVAAISIGGGRTYYADSVKGRFTISRDNAKNTVYLQMNSLKPEDTAVYYCAAEYFYGYKDVYDYWGQGTQVTVSS | high polyreactivity |
| QVQLVESGGGLVQAGGSLRLSCAASGIIFIYNAMGWYRQAPGKERELVADIRRSGSTSYADSVKGRFTISRDNAKNTVYLQMNSLKPEDTAVYYCAADTSTWFGAYYLRDPYDYWGQGTQVTVSS | low polyreactivity |
| QVQLVESGGGLVQAGGSLRLSCAASGIIFKGYDMGWYRQAPGKERELVAAISSGSTNYADSVKGRFTISRDNAKNTVYLQMNSLKPEDTAVYYCAVRTYRYQSWGNYYLEYDYWGQGTQVTVSS | low polyreactivity |
| QVQLVESGGGLVQAGGSLRLSCAASGIIFKIYAMGWYRQAPGKARELVAAISWRGGSTYYADSVKGRFTISRDNAKNTVYLQMNSLKPEDTAVYYCAAARGYRTGYGYWGQGTQVTVSS | high polyreactivity |
| QVQLVESGGGLVQAGGSLRLSCAASGIIFKQYAMGWYRQAPGKERELVAAITGSGGRTTYADSVKGRFTISRDNAMNTVYLQMNSLKPEDTAVYFCAAVGLSGWRDGYWGQGTQVTVSS | high polyreactivity |
| QVQLVESGGGLVQAGGSLRLSCAASGIIFKRNAMGWYRQAPGKERELVAAITYRGTSTYYADSVKGRFTISRDNAKNTVYLQMNSLKPEDTAVYYCNAVGRSSGSAFNYWGQGTQVTVSS | high polyreactivity |
| QVQLVESGGGLVQAGGSLRLSCAASGIIFKRYVMGWYRQAPGKDRQLVAGISWSGVSTFYADSVKGRFTISRDNAKNTVYLQMNSLKPEDTAVYYCAADRARYYYQAYGAYGYWGQGTQVTVSS | high polyreactivity |
| QVQLVESGGGLVQAGGSLRLSCAASGIIFKSYVMGWYRQAPGKEREFVARITYRGGSTYYADSVKGRFTISRDNAKNTVYLQMNSLKPEDTAVYYCNKKNPQDLTENGYWGQGTQVTVSS | high polyreactivity |
| QVQLVESGGGLVQAGGSLRLSCAASGIIFKTYAMGWYRQAPGKERELVAGIDYSGGGTSYADSVKGRFTISRDNAKNTVYLQMNSLKPEDTAVYYCAADAYSGAYFTYLGEIYDYWGQGTQVTVSS | low polyreactivity |
| QVQLVESGGGLVQAGGSLRLSCAASGIIFKTYTMGWYRTAPGKERELVAAITFSGGSTYYADSVKGRFTISRDNAKNTVYLQMNSLKPEDTAVYYCADTHRFWWYSDDYWGQGTQVTVSS | high polyreactivity |
| QVQLVESGGGLVQAGGSLRLSCAASGIIFKVYAMGWYRQAPGKERELVAAISKSGGSTYYADSVKGRFTISRDNAKNTVYLQMNSLNPEDTAVYYCAARDYARYASYYYWGQGTQVTVSS | high polyreactivity |
| QVQLVESGGGLVQAGGSLRLSCAASGIIFLDNAMGWYRQAPGKERELVAAITTGGITYYADSVKGRFTISRDNAKNTVYLQMNSLKPEDTAVYYCAADNEWPRYDYWGQGTQVTVSS | low polyreactivity |
| QVQLVESGGGLVQAGGSLRLSCAASGIIFLDYVMGWYRQAPGKERELVAAINSGGSTYYADSVKGRFTISRANAKNNVYLQMNSLKPEDSAVYYCNAVFYDDWQIYDYWGQGTQVTVSS | low polyreactivity |
| QVQLVESGGGLVQAGGSLRLSCAASGIIFLKNAMGWYRQAPGKERELVAAITVSGARTYYADSVKGRFTISRDNAKNTVYLQMNSLKPEDTAVYYCATDRSYQRYNYWGQGTQVTVSS | high polyreactivity |
| QVQLVESGGGLVQAGGSLRLSCAASGIIFLKYAMGWYRQAPGKERELVAGISVRGGRTYYADSVKGRFTISRDNAKNTVYLQMNSLKPEDTAVYYCAKERSRYYPYDYWGQGTQVTVSS | high polyreactivity |
| QVQLVESGGGLVQAGGSLRLSCAASGIIFLNNAMGCYRQAPGKERELVAAITRTSTSTYYADSVKGRFTISRDNAKNTVYLQMNSLKPEDTAVYYSLVYWGQGTQVTVSS | low polyreactivity |
| QVQLVESGGGLVQAGGSLRLSCAASGIIFLQYAMGWYRQAPGKERELVAAITRRGDRTYYADSVKGRFTISRDNAKNTVYLQMNSLKPEDTAVYYCAASYWYRDYYYWGQGTQVTVSS | high polyreactivity |
| QVQLVESGGGLVQAGGSLRLSCAASGIIFLRNTMGWYRQAPGKERELVASISRRGGSTYYADSVKGRFTISRDNAKNTVYLQMNSLKPEDTAVYYCNKRSLEKGDYWGQGTQVTVTS | high polyreactivity |
| QVQLVESGGGLVQAGGSLRLSCAASGIIFLTHAMGWYRQAPGKERELVAAITAIGGSTYYADSVKGRFTLSRDNAMNTVYLLMISLKPEDTADYYCAADFSYVYYLYDFWGQGTKVTVSS | low polyreactivity |
| QVQLVESGGGLVQAGGSLRLSCAASGIIFNFNAMGWYSQAPGKERELVAGISYGGGRTYYADSVKGRFTISRDNAINTVYLQMNSLKPEDTAFYYCNKYGLGIYRGYYWGQGTQVTVSS | high polyreactivity |
| QVQLVESGGGLVQAGGSLRLSCAASGIIFNHYAMGWYGQAPGKERELVAAISRRGGSTYDADSVKGRFTISRDNAKNTVYLQMNSLKPEDTAVYYCNDRSFATGSKVPARGYWGQGTQVTVSS | high polyreactivity |
| QVQLVESGGGLVQAGGSLRLSCAASGIIFNRYAMGWYRQAPGKERELVAAITYSGDNTYYADSVKGRFTISRDNAKNTVYLQMNSLKPEDTAVYYCAAVSSRGGDYYWGQGTQVTVSS | high polyreactivity |
| QVQLVESGGGLVQAGGSLRLSCAASGIIFNSNAMGWYRQAPGKERELVAGISRGSSTSYADSVKGRFTISRDNAKNPVYLQMNSLKPADNAVYFCNAEVYSPQQFTPPDRYYYWGQGTQVTVSS | low polyreactivity |
| QVQLVESGGGLVQAGGSLRLSCAASGIIFNVNAMGWYRQAPGKERELVASINSGSTYYADSVKGRFTISRDNAKNTVYLQMNSLKPEDTAVYYCATGARSPPWGRSKKRTYYYWGQGTQVTVSS | high polyreactivity |
| QVQLVESGGGLVQAGGSLRLSCAASGIIFNYYTMGWYRQAPGKERELVAVITSRGSSPYYADSVKGRFTISRDNAKNTVNLQMNSLKPDDTAVYYCAKVRPYLDTNEYYYWGQGTQVTVSS | high polyreactivity |
| QVQLVESGGGLVQAGGSLRLSCAASGIIFPAYAMGWYRQARGKERELVAAITSRGGSTYYADSVKGRFTISRDNAKNTVYLQMNSLKPEDTAVYYCNAAALADYDYWGQGTQVTVSS | low polyreactivity |
| QVQLVESGGGLVQAGGSLRLSCAASGIIFPGKAMGWYRQAPGKERELVAAISSGGNTKYADSVKGRFTISRDNAKNTGYLQMNSLNPEDTAVYYCAAAARARNPSYGRNYWGQGTQVTVSS | high polyreactivity |
| QVQLVESGGGLVQAGGSLRLSCAASGIIFPQNAMGWSRQAPGKERELVAAISKSGGRTYYADSVKGRFTISRDNAKNTVYVQMNSLKPEDSAVYYCAKVPYAYSRDRSAEDSWGQGTQVTVSS | high polyreactivity |
| QVQLVESGGGLVQAGGSLRLSCAASGIIFPRYAMGWYRQAPGKERELVAAITRRGGRTYYADSVKGRFTISRDNAKNTVYLQMNSLKPEDTAVYYCNADFISPRPPKATDEDYWGQGTQVTVSS | high polyreactivity |
